Measurements taken from patent publication US20210032331A1 (PHANES THERAPEUTICS, published 2021).

Key:
[1] = target: T1, B5/IgG4; assay: ELISA peptide competition: peptide preincubated with B5/IgG4, competitor hLAG3-mFc; capture on anti-human IgG, anti-mouse IgG-HRP
T1 construct: Chimeric: mouse VH and VL with human IgG4 heavy chain and kappa light chain constant regions; also called B5 (human IgG4 heavy chain and kappa light chain chimeric)
Method: (§1) FIGS. 5A-5D show the effect of competition peptides on LAG-3 binding to anti-LAG-3 mAbs. […] B5/IgG4 was preincubated with a competition peptide for 30 minutes. Then human LAG-3 extracellular domain (ECD) fused to mouse Fc (hLAG3-mFc) was added (the final peptide concentration was 600-fold that of hLAG3-mFc) and the mixture was incubated for 60 minutes before being added to an ELISA plate coated with anti-human IgG. The incubation was carried out at 4° C. overnight. After washing, the hLAG3-mFc bound to the immobilized B5/IgG4 on the ELISA plate was detected by adding anti-mouse IgG conjugated to horseradish peroxidase (HRP) and incubating for 60 minutes. Then, after washing, the ELISA was developed using One-step Detection Solution and measured as the absorbance at 450 nm.
(§2) Anti-human IgG in carbonate coating buffer was coated on an ELISA plate at 4° C. (50 μL/well at 1 μg/mL) overnight. In each well of a separate plate, a chimeric version of a given anti-LAG-3 mAb (50 μL/well at 1.4 nM) and a competition peptide (50 μL/well at various concentrations as indicated in the figures) were mixed and incubated for 30 minutes at room temperature. Then human LAG-3 extracellular domain (ECD) fused to mouse Fc (hLAG3-mFc) was added to each well (50 μL/well at 2 nM) and the final mixture was incubated at room temperature for 60 minutes before added to the ELISA plate (50 μL/well) for another 60-minute incubation. The final incubation after adding the mixture to the ELISA plate was also performed at 4° C. overnight in some assays. The plate was washed and the binding of hLAG3-mFc to the immobilized anti-LAG-3 mAb was detected by adding anti-mouse IgG conjugated to horseradish peroxidase ([…]) (ThermoFisher Scientific, Cat#: A16084; Waltham, Mass.) and incubating for 60 minutes.

[2] = target: T2, B12 (human IgG1 heavy chain and kappa light chain chimeric); assay: ELISA peptide competition: peptide preincubated with chimeric IgG1 B12, competitor hLAG3-mFc; capture on anti-human IgG, anti-mouse IgG-HRP
T2 construct: Chimeric: mouse VH and VL with human IgG1 heavy chain and kappa light chain constant regions
T2 sequence (VH, as listed by the source, chain 1 of 2): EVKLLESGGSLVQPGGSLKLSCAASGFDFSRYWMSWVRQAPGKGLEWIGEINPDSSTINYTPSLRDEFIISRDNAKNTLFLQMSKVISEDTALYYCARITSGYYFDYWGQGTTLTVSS
T2 sequence (VL, as listed by the source, chain 2 of 2): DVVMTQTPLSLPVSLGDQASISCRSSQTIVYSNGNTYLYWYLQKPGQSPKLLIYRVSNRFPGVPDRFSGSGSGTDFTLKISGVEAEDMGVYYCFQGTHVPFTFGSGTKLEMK
Method: as §1, §2

[3] = target: T3, B7/IgG4; assay: ELISA peptide competition: peptide preincubated with B7/IgG4, competitor hLAG3-mFc; final incubation 60 min at room temperature; anti-mouse IgG-HRP
T3 construct: Chimeric: mouse VH and VL with human IgG4 heavy chain and kappa light chain constant regions; also called B7 (human IgG4 heavy chain and kappa light chain chimeric)
T3 sequence (VH, as listed by the source): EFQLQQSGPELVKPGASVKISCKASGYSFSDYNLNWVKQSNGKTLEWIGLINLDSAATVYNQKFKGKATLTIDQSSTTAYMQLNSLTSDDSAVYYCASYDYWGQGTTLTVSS
Method: B5/IgG4 was preincubated with a competition peptide for 30 minutes. Then human LAG-3 extracellular domain (ECD) fused to mouse Fc (hLAG3-mFc) was added (the final peptide concentration was 600-fold that of hLAG3-mFc) and the mixture was incubated for 60 minutes before being added to an ELISA plate coated with anti-human IgG. The incubation was carried out at 4° C. overnight. After washing, the hLAG3-mFc bound to the immobilized B5/IgG4 on the ELISA plate was detected by adding anti-mouse IgG conjugated to horseradish peroxidase (HRP) and incubating for 60 minutes. Then, after washing, the ELISA was developed using One-step Detection Solution and measured as the absorbance at 450 nm.
The assay condition is the same as in FIG. 5A except that the final incubation of the mAb, the competition peptide, and hLAG3-mFc on the ELISA plate was performed at room temperature for 60 minutes instead of incubation at 4° C. overnight.
Anti-human IgG in carbonate coating buffer was coated on an ELISA plate at 4° C. (50 μL/well at 1 μg/mL) overnight. In each well of a separate plate, a chimeric version of a given anti-LAG-3 mAb (50 μL/well at 1.4 nM) and a competition peptide (50 μL/well at various concentrations as indicated in the figures) were mixed and incubated for 30 minutes at room temperature. Then human LAG-3 extracellular domain (ECD) fused to mouse Fc (hLAG3-mFc) was added to each well (50 μL/well at 2 nM) and the final mixture was incubated at room temperature for 60 minutes before added to the ELISA plate (50 μL/well) for another 60-minute incubation.

[4] = target: T4, BG29 (human IgG4 heavy chain and kappa light chain chimeric); assay: ELISA peptide competition: peptide preincubated with chimeric IgG4 BG29, competitor hLAG3-mFc; capture on anti-human IgG, anti-mouse IgG-HRP
T4 construct: Chimeric: mouse VH and VL with human IgG4 heavy chain and kappa light chain constant regions; also called chimeric BG29
T4 sequence (VH, as listed by the source, chain 1 of 2): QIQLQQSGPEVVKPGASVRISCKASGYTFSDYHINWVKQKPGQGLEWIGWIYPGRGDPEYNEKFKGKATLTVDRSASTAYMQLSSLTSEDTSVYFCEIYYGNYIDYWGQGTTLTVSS
T4 sequence (VL, as listed by the source, chain 2 of 2): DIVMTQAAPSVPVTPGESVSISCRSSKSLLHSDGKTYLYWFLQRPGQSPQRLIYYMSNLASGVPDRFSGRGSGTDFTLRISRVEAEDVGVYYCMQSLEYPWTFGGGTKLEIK
Method: as §1, §2

[5] = target: T4, BG29 (human IgG4 heavy chain and kappa …); assay: ELISA peptide competition: peptide preincubated with chimeric IgG4 BG29, competitor hLAG3-mFc; peptide at 200-fold hLAG3-mFc; capture on anti-human IgG, anti-mouse IgG-HRP
Method: as §1, §2

[6] = target: T2, B12 (human IgG1 heavy chain and kappa …); assay: ELISA peptide competition: peptide preincubated with chimeric IgG1 B12, competitor hLAG3-mFc; peptide at 600-fold hLAG3-mFc; capture on anti-human IgG, anti-mouse IgG-HRP
Method: as §1, §2

[7] = target: T1, B5/IgG4; assay: ELISA peptide competition: peptide preincubated with B5/IgG4, competitor hLAG3-mFc; peptide at 600-fold hLAG3-mFc; capture on anti-human IgG, anti-mouse IgG-HRP
Method: as §1, §2

[8] = target: T5, human LAG-3(ECD)-huFc (human, UniProt P18627 23-450); assay: SPR (Biacore): mAb from hybridoma supernatant captured on anti-mouse IgG CM5 chip, human LAG-3(ECD)-huFc 50-400 nM injected
T5 construct: also called Fc-tagged human LAG-3(ECD)-huFc; not shown: human Fc (huFc) at the C-terminus
T5 sequence: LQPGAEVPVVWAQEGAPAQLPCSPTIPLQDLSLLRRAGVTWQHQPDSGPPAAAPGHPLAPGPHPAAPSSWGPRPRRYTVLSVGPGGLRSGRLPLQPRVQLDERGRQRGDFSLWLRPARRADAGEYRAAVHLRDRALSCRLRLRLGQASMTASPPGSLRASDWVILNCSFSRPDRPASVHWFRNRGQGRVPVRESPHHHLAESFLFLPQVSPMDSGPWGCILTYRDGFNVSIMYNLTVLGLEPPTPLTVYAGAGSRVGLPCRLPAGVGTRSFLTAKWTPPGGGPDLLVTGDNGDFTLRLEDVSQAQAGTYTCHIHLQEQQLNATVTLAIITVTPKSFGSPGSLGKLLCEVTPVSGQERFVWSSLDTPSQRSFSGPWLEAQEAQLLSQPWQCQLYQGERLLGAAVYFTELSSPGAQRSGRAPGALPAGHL
Method: Anti-mouse IgG antibodies were immobilized via amine coupling on CM5 chip surface. Anti-LAG-3 mAbs in hybridoma supernatants were captured on the chip surface and a series of concentrations (50-400 nM) of human LAG-3(ECD)-huFc protein were injected and passed through the captured surface. The on and off rates for antibody-antigen binding were measured, curve fitted and calculated.

[9] = target: T6, full-length human LAG-3 on stably transfected CHO-S cells (human, UniProt P18627 23-525); assay: FACS, CHO-S cells stably transfected with full-length human LAG-3, PE anti-mouse IgG
T6 construct: also called hLAG3
T6 sequence: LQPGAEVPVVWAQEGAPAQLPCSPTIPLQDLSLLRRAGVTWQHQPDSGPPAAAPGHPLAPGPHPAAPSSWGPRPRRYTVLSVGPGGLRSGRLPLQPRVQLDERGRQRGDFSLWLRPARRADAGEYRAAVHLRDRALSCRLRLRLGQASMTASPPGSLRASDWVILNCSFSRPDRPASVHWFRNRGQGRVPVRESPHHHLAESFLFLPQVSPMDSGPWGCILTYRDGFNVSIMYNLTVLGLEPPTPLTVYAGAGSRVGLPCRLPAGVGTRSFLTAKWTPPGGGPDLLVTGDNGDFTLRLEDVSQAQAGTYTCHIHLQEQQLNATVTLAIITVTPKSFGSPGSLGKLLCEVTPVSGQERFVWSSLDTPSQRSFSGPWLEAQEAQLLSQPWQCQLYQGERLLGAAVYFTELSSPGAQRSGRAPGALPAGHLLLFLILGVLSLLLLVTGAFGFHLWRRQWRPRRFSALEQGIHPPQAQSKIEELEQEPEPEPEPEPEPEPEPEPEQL
Method: CHO-S cells stably transfected with full-length human LAG-3 were transferred to a 96-well plate. Around 200,000 cells were incubated with either purified chimeric anti-LAG-3 mAbs (variable regions of mouse mAbs fused to the constant regions of human IgG1 heavy chain and kappa light chain, respectively) or purified mouse anti-LAG-3 mAbs from hybridoma supernatants at various concentrations for 15 minutes at 4° C. Cells were then centrifuged at 1,000 rpm for 5 minutes and washed with FACS buffer (PBS supplemented with 5% BSA) three times. For the cells treated with the chimeric antibodies, the cells were then incubated with PE-conjugated goat anti-human IgG polyclonal antibodies and incubated on ice for another 15 minutes; for the cells treated with mouse mAbs, the cells were incubated with PE-conjugated goat anti-mouse IgG polyclonal antibodies and incubated on ice for another 15 minutes. Cells were then washed with FACS buffer three times and then resuspended in FACS buffer containing 0.1 μg/ml PI (propidium iodide) for live/dead cell gating. Cells were then run through the FACS Caliber instrument and the data were analyzed by the Flowjo software. Results of the FACS binding analysis of the mouse anti-LAG-3 mAbs (B1, B2, B3, B4, B5, B6, B7, B8, B9, B10, B11, B12, and B13) are provided in FIGS. 1A-1B.

QPDSGPPAAAPGHPL (also called peptide Q15) [Q15]
binding result [1]: no binding (tested: 600-fold hLAG3-mFc) | binding result [2]: no binding (tested: 600-fold hLAG3-mFc)

QPDSGPPAAAPGHP (also called peptide Q14) [Q14]
binding result [1]: no binding (tested: 600-fold hLAG3-mFc) | binding result [2]: no binding (tested: 600-fold hLAG3-mFc)

GPPAAAPGHPL (also called peptide 1-11) [1-11]
binding result [1]: no binding (tested: 600-fold hLAG3-mFc)

SSWGPRPRRY (also called peptide 21-30) [21-30]
binding result [3]: no binding (tested: 600-fold hLAG3-mFc)

PHPAAPSSWGPR (also called peptide 15-26) [15-26]
binding result [3]: no binding (tested: 600-fold hLAG3-mFc)

APGHPLAP (also called peptide 6-13) [6-13]
binding result [4]: no binding (tested: 200-fold hLAG3-mFc)

AAPGHPLAPG (also called peptide 5-14) [5-14]
binding result [2]: no binding (tested: 600-fold hLAG3-mFc) | binding result [5]: binds

PSSWGPRPRRY (also called peptide 20-30) [20-30]
binding result [3]: no binding (tested: 600-fold hLAG3-mFc)

PAAAPGHPLAPG (also called peptide 3-14) [3-14]
binding result [1]: no binding (tested: 600-fold hLAG3-mFc) | binding result [6]: binds | binding result [5]: binds

PGHPLAPG (also called peptide 7-14) [7-14]
binding result [4]: no binding (tested: 200-fold hLAG3-mFc)

APGHPLAPG (also called peptide 6-14) [6-14]
binding result [2]: no binding (tested: 600-fold hLAG3-mFc) | binding result [4]: no binding (tested: 200-fold hLAG3-mFc)

AAAPGHPLAPG (also called peptide 4-14) [4-14]
binding result [2]: no binding (tested: 600-fold hLAG3-mFc) | binding result [5]: binds

GPPAAAPGHPLA (also called peptide 1-12) [1-12]
binding result [7]: binds | binding result [4]: no binding (tested: 200-fold hLAG3-mFc)

B1: B9 (antibody, V domains shown)
VH: EVQLRQSGPVLVKPGASVKMSCKASGYTFTGYYMNWVKQSHGKSLEWLAVINPYNGDTAYNRKFKGRATLTVDKSSSTAYMELNRLTSEDSAVYYCVRDDGYHVRYFDVWGTGTTVTVSS
VL: DIQMTQSPSSLSASLGERVSLTCRASQDISDSLCWLQQKPDGTIKRLIYSTSTLDSGVPKRFSGSRSGSDYSLTISSLESEDFADYYCLQYASSPPTFGGGTKLEIK
notes: Mouse mAb from hybridoma; also called mouse anti-LAG-3 mAb B9
Kd [8]: 1.53 nM | EC50 (read off the curve) [9]: ~0.2 µg/mL
